The target of experiment [1] is T1, ChemR23 (Mus musculus, UniProt P97468).
T1 chain: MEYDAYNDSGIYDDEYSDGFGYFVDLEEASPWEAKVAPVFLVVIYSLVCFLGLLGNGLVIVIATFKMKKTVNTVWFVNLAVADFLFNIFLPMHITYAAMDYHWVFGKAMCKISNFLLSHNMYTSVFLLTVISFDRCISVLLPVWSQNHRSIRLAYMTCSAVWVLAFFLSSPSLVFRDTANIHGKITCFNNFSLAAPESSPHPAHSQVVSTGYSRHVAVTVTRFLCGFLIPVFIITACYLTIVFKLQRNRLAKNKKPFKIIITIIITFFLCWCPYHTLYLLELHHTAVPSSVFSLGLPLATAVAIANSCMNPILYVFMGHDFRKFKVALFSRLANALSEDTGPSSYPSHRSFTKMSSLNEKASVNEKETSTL
Nature of the experiment: radioligand saturation binding (CHO-K1 cells).

Experiment [2] addresses T1, ChemR23. Put plainly: radioligand saturation binding (125I-chemerin, peritoneal macrophages).
The target of experiment [3] is T2, ChemR23 (Homo sapiens, UniProt Q99788).
T2 chain: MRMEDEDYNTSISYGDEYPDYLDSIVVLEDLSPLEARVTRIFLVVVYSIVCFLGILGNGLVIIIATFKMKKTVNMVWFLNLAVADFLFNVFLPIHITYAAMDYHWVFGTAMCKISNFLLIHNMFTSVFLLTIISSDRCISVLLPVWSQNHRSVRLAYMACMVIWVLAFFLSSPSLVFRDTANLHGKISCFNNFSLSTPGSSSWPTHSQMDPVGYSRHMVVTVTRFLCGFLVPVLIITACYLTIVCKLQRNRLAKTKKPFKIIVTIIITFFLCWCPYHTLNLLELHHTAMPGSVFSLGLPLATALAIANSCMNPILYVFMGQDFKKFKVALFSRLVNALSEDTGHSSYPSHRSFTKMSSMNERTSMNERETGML
Put plainly: radioligand.

B1: chemerin (protein)
chain: ELTEAQRRGLQVALEEFHKHPPVQWAFQETSVESAVDTPFPAGIFVRLEFKLQQTSCRKRDWKKPECKVRPNGRKRKCLACIKLGSEDKVLGRLVHCPIETQVLREAEEHQETQCLRVQRAGEDPHSFYFPGQFAFS
modifications: 125I-labelled chemerin
For B1, the Kd (commonly the free concentration of one partner at which half of the binding sites on the other are occupied at equilibrium, for simple one-to-one binding) is 1.1 nM in experiment [1] and ~1.2 nM in experiment [2].

B2: chemerin (protein)
chain: ELTEAQRRGLQVALEEFHKHPPVQWAFQETSVESAVDTPFPAGIFVRLEFKLQQTSCRKRDWKKPECKVRPNGRKRKCLACIKLGSEDKVLGRLVHCPIETQVLREAEEHQETQCLRVQRAGEDPHSFYFPGQFAFS
B2 registered a Kd in experiment [3] of 0.9 nM. This lies in the sub-nanomolar range.

The values above are taken from PMC3386906 (2012).
